For this experiment, the target named is Nedd4 (UniProt P46935). The experiment can be described thus: anti-FLAG co-IP, Ala mutants. The following applies: reference: wild type; sites T1859,S1962.

In the case of “Kif26b (from UniProt Q7TNC6) T1859A/S1962A”, the “binding against the reference” value is on record as “weaker”.
